According to patent publication US9809653B2, “Anti-LAMP1 antibodies and antibody drug conjugates, and uses thereof” (SANOFI, priority 2012, dated 2017):
Like-named read-outs stand apart in the source and are kept apart here.

Key:
[1] = cited from earlier work
Colo205 cells = experiment: Quenching of Alexa488 by anti-Alexa488 antibody, flow cytometry, internalized fraction; type: cell-based, human
Experimental: Quantification of internalization can also be performed by fluorescence-based quenching methods. In particular, a fluorescence-based Alexa488-quenching method has been described to analyze internalisation of targeting agents (Frejd et al. 2010, International Journal of Oncology, 36: 757-763). According to said description, internalization is calculated as the Mean fluorescence intensity (MFI) value of quenched cells (intracellular compartments only) divided by the MFI value of unquenched cells (both cell surface and intracellular compartments) at 37° C., according to the following formula: […]
The cells were washed twice in ice cold PBS in a cold centrifuge, and resuspended in 500 nM quenching anti-Alexa488 antibody diluted in ice cold PBS. All tubes were incubated for 1 h on ice. Without washing, all cells were fixed in two volumes of 2% paraformaldehyde for 10 min at room temperature. The paraformaldehyde was removed by one wash in PBS, and the cells were resuspended in PBS and analyzed in a flow cytometer (Guava® easyCyte 8HT Flow Cytometry System).
An internalization positive control experiment was done in parallel with Alexa488-labelled Transferrin (600 nM).
Mean fluorescence intensity (MFI) values obtained from the flow cytometry reading of 5×10^4 cells per tube were used for all calculations. Internalization was calculated as the MFI value of quenched cells (intracellular compartments only) divided by the MFI value of unquenched cells (both cell surface and intracellular compartments) at 37° C. as described in the formula: […]

[2] = target: T1, cell surface LAMP1 on Patient-derived tumor xenografts and tumor cell lines (Homo sapiens, UniProt P11279); experiment: Antibody binding capacity (ABC) by FACS on patient-derived xenografts and tumor cell lines; conditions: FACS
T1 construct: endogenous in cells; host or cells: enzymatically dissociated patient-derived xenograft tumour cells (e.g. CR-IGR-034P, LUN-NIC-014P, BRE-IGR-0159) and tumour cell lines
T1 sequence (P11279 29-417): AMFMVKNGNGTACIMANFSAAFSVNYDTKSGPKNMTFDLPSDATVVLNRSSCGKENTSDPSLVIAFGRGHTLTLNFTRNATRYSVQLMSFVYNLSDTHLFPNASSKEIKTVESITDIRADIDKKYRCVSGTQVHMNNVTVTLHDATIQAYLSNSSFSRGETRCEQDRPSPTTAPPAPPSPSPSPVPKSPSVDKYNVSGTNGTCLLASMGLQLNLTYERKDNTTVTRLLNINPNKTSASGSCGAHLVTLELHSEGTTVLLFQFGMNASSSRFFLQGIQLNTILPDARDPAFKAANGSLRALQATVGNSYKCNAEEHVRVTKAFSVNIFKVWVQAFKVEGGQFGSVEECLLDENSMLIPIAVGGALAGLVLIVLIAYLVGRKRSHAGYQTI
Experimental: Antibody binding capacity of antibody was determined using Mouse IgG Calibrator kit (Biocytex #7208) or Human IgG Calibrator Kit (Biocytex #CP010) according to the manufacturer's instructions.
The panel of tumor cells comprises Patient-derived tumor xenografts from different origins and tumor cell lines. FIG. 2 illustrates the expression profile and Table 4 summarizes the antibody binding capacity results.
(§1) The panel of tumor cells comprises Patient-derived tumor xenografts from different origins and tumor cell lines.

[3] = target: T2, patient-derived xenografts from colon, lung and breast origin and tumor cell lines (Homo sapiens, UniProt P11279); experiment: Binding to patient-derived xenograft tumor cells by flow cytometry (mean fluorescence); conditions: for Mean Florescence Intensity (MFI): FACS
T2 construct: endogenous in cells; host or cells: enzymatically dissociated patient-derived xenograft tumour cells (e.g. CR-IGR-034P, LUN-NIC-014P, BRE-IGR-0159) and tumour cell lines
T2 sequence (P11279 29-417): T1 sequence (P11279 29-417)
Experimental: Advanced human primary tumors from colon (CR-IGR-034P), lung (LUN-NIC-014P and breast (BRE-IGR-0159) indications were obtained from patient-derived xenograft (PDX) in mice as described in example 1. PDXs were enzymatically dissociated using collagenase Type IV (Invitrogen; #17104-019) and deoxyribonuclease I (Invitrogen, #18047-019) for 1 h at 4° C. Cell viability was estimated by Viacount application using Guava® easyCyte™ 8HT Flow Cytometry System. Tumoral cells were coated at 40,000 cells/well on 96-well High Bind plate (MSD L15XB-3) and 100 μL of antibody was added at 20 μg/mL for 45 min at 4° C. and washed three times with PBS 1% BSA. 100 μL of goat anti-human IgG conjugated with Alexa488 (Invitrogen; #A11013) was added for 45 min at 4° C. and washed three times with PBS 1% BSA. The antibody binding was evaluated after centrifugation and resuspension of cells by adding 200 μL/well PBS 1% BSA and read using Guava® easyCyte™ 8HT Flow Cytometry System. The mean fluorescence was recorded and plotted in the graph shown in FIG. 12 to illustrate the expression profile of the three mAbs onto the three PDXs.
as §1

recombinant human LAMP2 = target: T3, recombinant human LAMP2 (Homo sapiens, UniProt P13473); experiment: Specificity ELISA on recombinant human LAMP2; type: binding
T3 construct: purchased R&D Systems 6228-LM
Experimental: LAMP2 is the closest member of the LAMP family with 35% sequence identity to LAMP1. […] Anti-LAMP1 antibodies were added to the plates and detected by using rabbit anti-mouse IgG conjugated with horseradish peroxidase (Sigma; #A9044). Antibody binding was visualized by adding TMB-H2O2 buffer and read at a wavelength of 450 nm.
LAMP2 is the closest member of the LAMP family with 35% sequence identity to LAMP1. Specificity of MAb4 was evaluated by ELISA as described in example 4.6 with either LAMP1 or LAMP2 soluble proteins, as shown in FIG. 41.

[4] = target: T4, LAMP1 in FFPE colon adenocarcinoma PDX CR-LRB-010P and human breast carcinoma (Homo sapiens, UniProt P11279); experiment: IHC on FFPE tumor tissue, LAMP1 membrane reinforcement; conditions: FFPE samples
T4 construct: from tissue; host or cells: human tumoral and non-tumoral tissue sections and PDX tumour sections (frozen-OCT, AFA, FFPE)
T4 sequence (P11279 29-417): T1 sequence (P11279 29-417)
Excerpt: IHC analysis of tumor tissues from biobanks or from hospitals before or during patient treatment is routinely done with formalin-fixed paraffin-embedded (FFPE) samples. […] One of the reasons is probably the effect of the formalin fixative combined to the complexity of the protein. Samples processed in frozen OCT or AFA are not routinely prepared in hospitals. Therefore, there is a need to have a mAb that would allow complete and fast coverage of the FFPE tumor biobanks and hospital samples.
Rabbit polyclonal antibodies generated with peptides described in example 17.1.1 were tested by IHC on FFPE sample of colon adenocarcinoma patient derived xenograft CR-LRB-010P and human breast carcinoma. After antigen retrieval procedure and endogen biotins blocking steps, slides were incubated with the primary anti-antibody for 1 hour at 24° C. Negative controls were performed by omission of the primary antibody. The biotin free anti-rabbit UltraMap™ horseradish peroxidase (HRP) conjugate (760-4315, Ventana Medical Systems, Inc, USA) was used as secondary antibody system according to manufacturer's recommendations. A couterstaining step was done with hematoxylin (760-2037, Ventana Medical Systems, Inc, USA) and bluing reagent was applied (760-2037, Ventana Medical Systems, Inc, USA). Stained slides were dehydrated and coverslipped with cytoseal XYL (8312-4, Richard-Allan Scientific, USA).
As the same manner as in example 17.1.2, IHC screening was performed with the hybridoma supernatant to identify mouse monoclonal antibody showing LAMP1 membrane reinforcement on FFPE sample of colon adenocarcinoma patient derived xenograft CR-LRB-010P. The biotin free anti-mouse UltraMap™ horseradish peroxidase (HRP) conjugate (760-152, Ventana Medical Systems, Inc, USA) was used as secondary antibody system according to manufacturer's recommendations.

[5] = Colo205, 4 h, 500 nM quenching anti-Alexa488 antibody

T3 sequence (P13473 with tags, fused parts or gaps): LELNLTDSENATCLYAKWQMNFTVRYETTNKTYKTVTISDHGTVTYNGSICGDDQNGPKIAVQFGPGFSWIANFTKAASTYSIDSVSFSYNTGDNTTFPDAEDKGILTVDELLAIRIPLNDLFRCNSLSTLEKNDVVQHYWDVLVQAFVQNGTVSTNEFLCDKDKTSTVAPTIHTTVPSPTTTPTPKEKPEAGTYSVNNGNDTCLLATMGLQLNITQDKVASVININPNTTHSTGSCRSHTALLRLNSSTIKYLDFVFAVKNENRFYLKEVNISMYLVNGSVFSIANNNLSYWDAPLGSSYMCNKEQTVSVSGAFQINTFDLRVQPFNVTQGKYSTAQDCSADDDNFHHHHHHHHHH

## transferrin: transferrin, literature internalization reference
[1]; cells incubated at 37° C. for one hour
  IS: 0.9
[1]; cells left on ice
  IS: 0

## Alexa488-Transferrin: internalization positive control
Colo205 cells; [5]
  MFI 4° C. Quencher: 8.98
  MFI 37° C. Quencher: 1210
Colo205 cells; Colo205, 4 h, unquenched
  MFI 4° C.: 35.78
  MFI 37° C.: 1228
Colo205 cells; Colo205, after 4 h at 37° C.
  total cell fluorescence that was intracellular: about 98.5%

B1: MAb4: mouse monoclonal anti-LAMP1 antibody from hybridoma 88LAMP1-2, VH SEQ ID NO: 88, VL SEQ ID NO: 89 (antibody, listed as Mus musculus, V domains shown)
VH: QVQLQQSGAELVRPGTSVKVSCKASGYAFTNYLIEWVKQRPGQGLEWIGVINPGSGGTNYNEKFKGKATLTADKSSSTAYMQLSSLTSDDSAVYFCARYRSYDWYFDVWGAGTTVTVSS
VL: DIQMTQSPASLSASVGETVTITCRVSGNIHNYLAWYQQKQGKSPQLLVYNAKTLADGVPSRFSGSGSGTQYSLKINSLQPEDFGSYYCQHFWSNPYTFGGGTKLEIK
[2]; CR-IGR-034P/colorectal PDX
  Antibody Binding Capacity (ABC): 260 000
[2]; Colo205/colon cell line
  Antibody Binding Capacity (ABC): 3000
[2]; LUN-NIC-006/lung PDX
  Antibody Binding Capacity (ABC): 92 000
[2]; LUN-NIC-033/lung PDX
  Antibody Binding Capacity (ABC): 87 000
[3]; BRE-IGR-0159/breast PDX
  Mean Florescence Intensity (MFI): 400
[3]; CR-IGR-034P/colorectal PDX
  Mean Florescence Intensity (MFI): 424
[3]; Colo205/colon cell line
  Mean Florescence Intensity (MFI): 7
[3]; LUN-NIC-006/lung PDX
  Mean Florescence Intensity (MFI): 162
[3]; LUN-NIC-033/lung PDX
  Mean Florescence Intensity (MFI): 154
[3]; PDX and tumor cell lines
  binding to tumor cells by flow cytometry: able of binding to multiple tumor cells
Recombinant human LAMP2
  binding to LAMP2: No binding
  difference between the EC50 towards LAMP1 versus LAMP2: more than 100 fold
[4]
  LAMP1 membrane reinforcement in FFPE format by IHC: displayed membrane reinforcement immunostaining
